Read-outs that look alike come from different tables or passages of the source. Where only a bound is given, the exact number is not on record here.

In one series the target is integrin αvβ3 (Homo sapiens, UniProt P05106+P06756). Kind of series: Competitive cell binding assay with ^125I-echistatin in U87MG cells.
The nature of the next series: Dynamic PET. As to conditions: mouse, in vivo; for half-life: iv. On the set-up: species or system athymic nude mice.
Series [1] in a line: Ex vivo biodistribution at 4 h p.i. The arrangement: species or system athymic nude mice. As to conditions: mouse, in vivo.
Series [2] in a line: Metabolic stability in urine by radio-HPLC. In kind it is in vivo, ICR mice.
A short description of series [3]: Serum stability by radio-HPLC. In kind it is in vitro ADME, mouse.
The nature of series [4]: Longitudinal static PET with ROI analysis in U87MG tumor-bearing mice. The arrangement: species or system athymic nude mice. Conditions: mouse, in vivo.
The nature of series [5]: Octanol-water partition coefficient. Type of series: physicochemical.
The conditions of series [6]: mouse, U87MG tumor, 10 mg/kg.
A short description of a further series: in vivo. Conditions: both, athymic nude, mouse, tumor, 10 mg/kg, total radioactivity.

Consider `N=C(N)NCCC[C@@H]1NC(=O)[C@H](CCCCNC(=S)Nc2ccc(CC3CN(CC(=O)O)CCN(CC(=O)O)CCN3CC(=O)O)cc2)NC(=O)[C@@H](Cc2ccccc2)NC(=O)[C@H](CC(=O)O)NC(=O)CNC1=O` (stereo partly drawn) [NOTA-c(RGDfK)], for which the IC50 (commonly the concentration that gives 50% inhibition) at integrin αvβ3 worked out at 507 ± 62 nM.

As to `N=C(N)NCCC[C@@H]1NC(=O)[C@H](CCCCNC(=O)COCCOCCNC(=O)COCCOCCNC(=S)Nc2ccc(C[C@H]3CN(CC(=O)O)CCN(CC(=O)O)CCN3CC(=O)O)cc2)NC(=O)[C@@H](Cc2ccccc2)NC(=O)[C@H](CC(=O)O)NC(=O)CNC1=O` [^64Cu-NOTA-(PEG)2-c(RGDfK), metal not drawn], in “Dynamic PET”, the tissue uptake (usually the percentage of the injected dose found per gram of tissue) was about 4 %ID/g and the half-life (usually how long it takes for the measured level to halve) amounted to 4.76 min. Further, the tissue uptake at 4 h in series [1] came out at 2.36 ± 0.31 %ID/g. The “radioactive metabolites in urine” value in series [2] (mouse, in vivo) is “not observed”. Moreover, in [3] (mouse, serum, 4 h), the “fraction remaining intact in serum” value is over 95%. In series [4], this compound registered a tissue uptake at 0.5 h of 3.62 ± 0.21 %ID/g. In addition, the logP (in general, the decadic logarithm of the partition coefficient of the neutral form, usually between octanol and water) in [5] is -2.82 ± 0.06.

Turning to `N=C(N)NCCC[C@@H]1NC(=O)[C@H](CCCCNC(=O)[C@H]2O[C@@H](CNC(=O)[C@H]3O[C@@H](CNC(=O)[C@H]4O[C@@H](CNC(=O)[C@H]5O[C@@H](CNC(=O)CCOCCOCCOCCOCCNC(=S)Nc6ccc(C[C@H]7CN(CC(=O)O)CCN(CC(=O)O)CCN7CC(=O)O)cc6)[C@H](O)[C@@H](O)[C@H]5O)[C@H](O)[C@@H](O)[C@H]4O)[C@H](O)[C@@H](O)[C@H]3O)[C@H](O)[C@@H](O)[C@H]2O)NC(=O)[C@@H](Cc2ccccc2)NC(=O)[C@H](CC(=O)O)NC(=O)CNC1=O` [^64Cu-NOTA-PEG4-SAA4-c(RGDfK), metal not drawn], the tissue uptake in the series “Dynamic PET” (5.5 MBq) is about 4 %ID/g; in the series “in vivo”, 10 %ID/g. In addition, in the series “Dynamic PET” (5.5 MBq), the half-life is 4.07 min. Also, the tissue uptake at 4 h in series [1] (10 mg/kg, kidney uptake, ex vivo, with blocking, 4 h p.i., blocking group, c(RGDyK) 10 mg/kg) came out at 1.78 ± 1.04 %ID/g; in series [1] (5.5 MBq, U87MG tumor uptake, ex vivo, 4 h p.i., γ-counter), 1.14 ± 0.26 %ID/g; in [1] (5.5 MBq, kidney uptake, ex vivo, 4 h p.i., positive (unblocked) group), 0.96 ± 0.12 %ID/g; in series [6], 0.18 ± 0.03 %ID/g; in series [4] (5.5 MBq, U87MG tumor uptake, PET, 4 h p.i., n = 3), 1.67 ± 0.38 %ID/g. The “radioactive metabolites in urine” value in [2] (urine collected 1 h after administration) is listed as “not observed”. For the same compound, the tissue uptake at 0.5 h in [6] amounted to 0.42 ± 0.14 %ID/g; in series [4] (5.5 MBq, U87MG tumor uptake, PET, 0.5 h p.i.), 2.5 ± 0.18 %ID/g. The tissue uptake at 2 h in [6] was found to be 0.24 ± 0.06 %ID/g; in series [4] (5.5 MBq, U87MG tumor uptake, PET, 2 h p.i., n = 3) it was 1.77 ± 0.38 %ID/g. In [3] (1 or 4 h incubation in mouse serum at 37°C), the “fraction remaining intact in serum” value is over 95%. Besides, the logP in [5] is -3.4 ± 0.05.

In “Dynamic PET”, `N=C(N)NCCC[C@@H]1NC(=O)[C@H](CCCCNC(=S)Nc2ccc(CC3CN(CC(=O)O)CCN(CC(=O)O)CCN3CC(=O)O)cc2)NC(=O)[C@@H](Cc2ccccc2)NC(=O)[C@H](CC(=O)O)NC(=O)CNC1=O` (stereo partly drawn) [^64Cu-NOTA-c(RGDfK), metal not drawn] returned a half-life of 2.56 min. This compound also displayed a tissue uptake at 4 h in series [1] of 2.98 ± 0.52 %ID/g. Further, the tissue uptake at 0.5 h in series [4] stood at 4.78 ± 0.74 %ID/g. The compound further displayed a logP in [5] of -2.65 ± 0.01.

For the origin of these results see article PMC4591102 (European journal of nuclear medicine and molecular imaging, 2015).
